B1: Regulator of cell cycle RGCC (Homo sapiens), Q9H4X1-2 (parent)
chain: MKPPAEDLSDALCEFDAVLADFASPFHERHFHYEEHLERMKRRSSASVSDSSGFSDSESADSLYRNSFSFSDEKLNSPTDSTPALLSATVTPQKAKLGDTKELEAFIADLDKTLASM

Variants of: B1
Conditions: with akt1_human AKT1, P31749
akt1_human AKT1, P31749, sequence (P31749 whole entry): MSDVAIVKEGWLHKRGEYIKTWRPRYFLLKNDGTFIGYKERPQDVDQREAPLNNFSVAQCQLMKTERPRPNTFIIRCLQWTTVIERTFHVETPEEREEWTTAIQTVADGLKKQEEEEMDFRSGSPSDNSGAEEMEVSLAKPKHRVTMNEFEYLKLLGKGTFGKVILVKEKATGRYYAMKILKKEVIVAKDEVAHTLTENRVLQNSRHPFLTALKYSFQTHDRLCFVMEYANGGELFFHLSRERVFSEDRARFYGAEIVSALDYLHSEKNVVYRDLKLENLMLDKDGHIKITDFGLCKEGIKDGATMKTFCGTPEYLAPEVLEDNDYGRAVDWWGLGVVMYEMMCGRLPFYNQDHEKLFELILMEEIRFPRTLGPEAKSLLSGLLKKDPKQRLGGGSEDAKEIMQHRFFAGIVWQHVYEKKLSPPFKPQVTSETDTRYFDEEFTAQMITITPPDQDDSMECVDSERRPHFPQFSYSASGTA

effect of a mutation on the interaction	Variant
disrupting interaction	S45A;S47A

Reference: IntAct's records for PubMed 19162005
